{"source": "patent US20060093613A1", "about": "(published 2006)", "binders": {"B1": {"name": "F5 TCR (TCR, V domains shown)", "Valpha": "GDSVTQMQGQVTLSEDDFLFINCTYSTTWYPTLFWYVQYPGEGPQLLLKVTTANNKGISRGFEATYDKGTTSFHLQKASVQESDSAVYYCVLGDRQGGRALIFGTGTTVSVSP", "Vbeta": "KAGVTQTPRYLIKTRGQQVTLSCSPISGHRSVSWYQQTPGQGLQFLFEYFSETQRNKGNFPGRFSGRQFSNSRSEMNVSTLELGDSALYLCASSFDSGNSPLHFGNGTRLTVT"}}, "molecular_target": "T1, influenza virus nucleoprotein peptide on H-2Db (mouse)", "T1 peptide": "ASNENMDAM", "assay": "Kd or kinetics", "data": [{"binder": "B1", "values": [{"measurement": "binding result", "value": "recognises"}]}]}
